Laboratory results published in article PMC9430671.

Tests used:
[1] = biological target: LysP7951 full-length product (FLP), produced from the wild-type lysP7951 gene (Streptococcus thermophilus phage P7951); experiment: native MS; purified LysP7951 complex (co-produced, co-purified) in 150 mM ammonium acetate, about 10 μM, nano-ESI Q-TOF, positive mode, collision energy 0 V (15 and 100 V for dissociation)
[2] = biological target: LysP7951 full-length product (FLP), produced from the wild-type lysP7951 gene (Streptococcus thermophilus phage P7951); experiment: SEC; analytical gel filtration (Superose 6 10/300 GL, calibrated) of single purified preparations; protein buffer (50 mM HEPES, 500 mM NaCl, 1% glycerol, pH 7), 0.4 mL/min; apparent molecular masses from elution volumes
[3] = biological target: LysP7951_(209-310) (Streptococcus thermophilus phage P7951); experiment: SAXS; LysP7951 CTP at 1.00, 1.85, 2.70 mg/mL in protein buffer, 20°C, BM29 beamline ESRF; molecular mass estimated from the scattering data
[4] = biological target: LysP7951_(209-310) (Streptococcus thermophilus phage P7951); experiment: SEC; analytical gel filtration (Superose 6 10/300 GL, calibrated) of single purified preparations; protein buffer (50 mM HEPES, 500 mM NaCl, 1% glycerol, pH 7), 0.4 mL/min; apparent molecular masses from elution volumes

| Substance | stoichiometry N (CTP subunits per FLP) [1] | stoichiometry N (CTP subunits per FLP) [2] | stoichiometry N [3] [subunits] | stoichiometry N [4] [subunits] |
| --- | --- | --- | --- | --- |
| LysP7951 C-terminal product (CTP), produced from the internal translation start site of the wild-type lysP7951 gene (domain or fragment) | 5 | 4 | – | – |
| LysP7951_(209-310) (domain or fragment) | – | – | 6 to 7 | 7 |
